Literature values in patent publication US20240156960A1 (priority 2020, published 2024).
Numbering of substitutions follows the chain as printed.

B1: C017 (antibody, listed as Homo sapiens, V domains shown)
VH: EVQLVESGGGLVQPGRSLRLSCAASGFTFDDYAMHWVRQAPGKGLEWVSGISWNSGTIGYADSVKGRFTISRDNAKNSLYLQMNSLRAEDTAFYYCAKAGVRGIAAAGPDLNFDHWGQGTLVTVSS
VL: EIVLTQSPATLSLSPGERATLSCRASQSVSSYLAWYQQKPGQAPRLLIYDASNRATGIPARFSGSGSGTDFTLTISSLEPEDFAVYYCQQRITFGQGTRLEIK
B2: C101 (antibody, listed as Homo sapiens, V domains shown)
VH: QVQLVESGGGLIQPGGSLRLSCAASGFIVSSNYMSWVRQAPGKGLEWVSVIYSGGSTFYTDSVKGRFTISRDNSKNTLYLQMNSLRAEDTAVYYCVRDYGDFYFDYWGQGTLVTVSS
VL: EIVLTQSPGTLSLSPGERATLSCRASQSVSSSYLAWYQQKPGQAPRLLIYGASSRATGIPDRFSGGGSETDFTLTISRLEPEDCAVYYCQQYGSSPRTFGQGTKVEIK
B3: C103 (antibody, listed as Homo sapiens, V domains shown)
VH: QVQLQQWGAGLLKPSETLSLTCAVSGGSLSGFYWTWIRQPPGKGLEWIGETNHFGSTGYKPSLKSRVTISVDMSRNQFSLKVTSVTAADTAVYYCARKPLLYSDFSPGAFDIWGQGTMVTVSS
VL: EIVLTQSPGTLSLSPGERATLSCRASQTVTANYLAWYQQKPGQAPRLLIYGASKRATGIPDRFSGSGSGTDFTLSISRLEPEDFAVYYCQQYTTTPRTFGGGTKVEIK
B4: C104 (antibody, listed as Homo sapiens, V domains shown)
VH: QVQLQQWGAGLLKPSETLSLSCAVYGGSLSGYYWSWIRQPPGKGLEWIGEINHFGSTGYNPSLKSRVTISVDTSKSQFSVKLSSVTAADTAVYYCARKPLLYSNLSPGAFDIWGQGTMVTVSS
VL: B3 VL with L11V, R24W, T28S, T30S, N32S, K54S, S75T, T93G
B5: C105 (antibody, listed as Homo sapiens, V domains shown)
VH: QVQLVESGGGLIQPGGSLRLSCAASGFTVSSNYMSWVRQAPGKGLEWVSVIYSGGSTYYADSVKGRFTISRDNSKNTLYLQMNSLRAEDTAVYYCARGEGWELPYDYWGQGTLVTVSS
VL: QSALTQPPSASGSPGQSVTISCTGTSSDVGGYKYVSWYQQHPGKAPKLMIYEVSKRPSGVPDRFSGSKSGNTASLTVSGLQAEDEADYYCSSYEGSNNFVVFGGGTKLTVL
B6: C108 (antibody, listed as Homo sapiens, V domains shown)
VH: QVQLQESGPGLVKPSGTLSLTCAVSGGSISSTNWWSWVRQPPGKGLEWIGEIYHTGSTNYNPSLKSRVTISVDKSKNQFSLKLSSVTAADTAVYYCVRDGGRPGDAFDIWGQGTMVTVSS
VL: QSALTQPASVSGSPGQSITISCTGTSSDVGGYNYVSWYQQHPGKAPKLMIYDVSNRPSGVSNRFSGSKSGNTASLTISGLQAEDEADYYCNSYTSSSTRVFGTGTKVTVL
B7: C110 (antibody, listed as Homo sapiens, V domains shown)
VH: QVQLQQSGAEVKKPGESLKISCKGSGYSFTSYWIGWVRQMPGKGLEWMGIIYPGDSDTRYSPSFQGQVTISADKSISTAYMQWSSLKASDTAMYYCARSFRDDPRIAVAGPADAFDIWGQGTMVTVSS
VL: DIQMTQSPSTLSASVGDRVTITCRASQSISYWLAWYQQKPGKAPKLLIYQASSLESGVPSRFSGSESGTEFTLTISSLQPDDFATYYCQQYNSYPYTFGQGTKLEIK
B8: C115 (antibody, listed as Homo sapiens, V domains shown)
VH: QVQLVESGGGLIKPGRSLRLSCTASGFTFGDYAMTWFRQAPGKGLEWVGFIRSKAYGGTTGYAASVKYRFTISRDDSKSIAYLQMDSLKTEDTAVYYCTRWDGWSQHDYWGQGTLVTVSS
VL: DIVMTQSPLSLSVTPGEPASISCRSSQSLLHSNGNNYFDWYLQKPGQSPQLLIYLGSNRASGVPDRFSGSGSGTDFTLKISRVEAEDVGVYYCMQVLQIPYTFGQGTKLEIK
B9: C117 (antibody, listed as Homo sapiens, V domains shown)
VH: QVQLVESGGGVVQPGRSLRLSCAASGFTFSTYAMHWVRQAPGEGLEWVAVISYDGSNTYYADSVKGRFTISRDNSKNTLYLQMNSLRAEDTAVYYCARDPIWFGELLSPPFVHFDYWGQGTLVTVSS
VL: QSVLTQPPSVSAAPGQKVTISCSGSSSNIGNNLVSWYQQLPGTAPKLLIYENNKRPSGIPDRFSGSKSGTSATLGITGLQTGDEADYYCGAWDSSLSAGGVYVFGTGTKVTVL
B10: C120 (antibody, listed as Homo sapiens, V domains shown)
VH: EVQLVESGGGLIQPGGSLRLSCAASGFTVSSNYMTWVRQAPGKGLEWVSLIYPGGSTYYADSVKGRFTISRDNSKNTLYLQMNSLRAEDTAVYYCAREGMGMAAAGTWGQGTLVTVSS
VL: AIRMTQSPSSLSASVGDTVTITCQASQDISKYLNWYQQKPGKAPKLLIYDASNLETGVPSRFSGSGSGTDFTFTISSLQPEDIATYYCQQYDNLPQTFGGGTKVEIK
B11: C122 (antibody, listed as Homo sapiens, V domains shown)
VH: EVQLVESGGGLIQPGGSLRLSCAASGLTVSSNYMSWVRQAPGKGLEWVSVLYSGGSSFYADSVKGRFTISRDNSKNTLYLQMNSLRAEDTAVYYCARESGDTTMAFDYWGQGTLVTVSS
VL: DIQLTQSPSFLSASVGDRVTITCRASQGISSYLAWYQQKPGKAPKLLIYAASTLQSGVPSRFSGSGSGTEFTLTISSLQPEDFATYYCQQLNSDSYTFGQGTKLEIK
B12: C123 (antibody, listed as Homo sapiens, V domains shown)
VH: EVQLVESGGGLIQPGGSLRLSCAASGVTVSRNYMSWVRQAPGKGLEWVSVIYSGGSTYYADSVKGRFTISRDNSKNTLYLQMNSLRAEDTAVYYCARDLSAAFDIWGQGTMVTVSS
VL: B11 VL with D94Y, S95P, Y96P, T97A, K103R
B13: C124 (antibody, listed as Homo sapiens, V domains shown)
VH: EVQLVESGGGLVQPGGSLRLSCAASGFTFSGYSMNWVRQAPGKGPEWVSYISRSSSTIYYADSVKGRFTISRDNAKNSLYLQMNSLRDEDTAVYYCAREGARVGATYDTYYFDYWGQGTLVTVSS
VL: EIVLTQSPATLSLSPGERATLSCRASQSFSSYLAWYQQKPGQAPRLLIYDASNRATGIPARFSGSGSGTDFTLTISSLEPEDFAVYYCQQRNNWPPEWTFGQGTKVEIK
B14: 2M-4G4 (antibody, listed as Homo sapiens, V domains shown)
VH: EVQLVESGAEVKKPGASVKVSCKASGYTFTSYYIHWVRQAPGQGLEWMGVINPSGGSTTYAQKFQGRVTVTRDTSTSTVYMELSSLRSEDTAVYYCARERGDSSGYYEIITTANRRFGMDVWGQGTTVTVSS
VL: QSVLTQPASVSGSPGQSITISCTGTSSDVGMYNLVSWYQQHPGQAPKLMIYEGSKRPSGVSNRFSGSKSGNTASLTISGLQAEDEAYYYCCSYAVSSTWVFGGGTKLTVL
B15: 2M-7E9 (antibody, listed as Homo sapiens, V domains shown)
VH: EVQLVESGAEVKKPGSSVKVSCKASGGTFSSFAISWVRQAPGQGLEWMGGIIPIFDTTNYAQKFQGRVTITADESTRTAYMELSSLRSEDTAVYYCARIPGWDRGTDRNWNDDWGQGTTVTVSS
VL: B13 VL with E1D, L4M, F29V, S31N, Y32F, N92S, E97A, W98F, Q102P
B16: 2M-8E7 (antibody, listed as Homo sapiens, V domains shown)
VH: EVQLVESGAEVKKPGSSVKVSCKASGGTFSSYAISWVRQAPGQGLEWMGGIIPIFGTANYAQKFQGRVTVTADESTSTAYMELSSLRSEDTAVYYCARTYSFDSSGYYYDYWGQGTMVTVSS
VL: B13 VL with F29V, N92S, E97K, W98I, K105R, V106L

Assays:
SARS-CoV2 S; RBD = SARS-CoV2 S; RBD (Severe acute respiratory syndrome coronavirus 2, UniProt P0DTC2); details: epitope S

| Molecule | Binds to (SARS-CoV2 S; RBD) | Binds to (SARS-CoV2) |
| --- | --- | --- |
| B1 | SARS-CoV2 |  |
| B2 | SARS-CoV2 |  |
| B3 | SARS-CoV2 |  |
| B4 | SARS-CoV2 |  |
| B5 | SARS-CoV2 |  |
| B6 | SARS-CoV2 |  |
| B7 | SARS-CoV2 |  |
| B8 | SARS-CoV2 |  |
| B9 | SARS-CoV2 |  |
| B10 | SARS-CoV2 |  |
| B11 | SARS-CoV2 |  |
| B12 | SARS-CoV2 |  |
| B13 | SARS-CoV2 |  |
| B14 |  | SARS-CoV2 |
| B15 |  | SARS-CoV2 |
| B16 |  | SARS-CoV2 |
